Laboratory results as given in article PMC3399532 (Prion, 2012).

Target: MoPrP-Fc (mouse, UniProt P04925 23-230)
Test: ELISA

MoPrP-Fc, sequence (P04925 23-230): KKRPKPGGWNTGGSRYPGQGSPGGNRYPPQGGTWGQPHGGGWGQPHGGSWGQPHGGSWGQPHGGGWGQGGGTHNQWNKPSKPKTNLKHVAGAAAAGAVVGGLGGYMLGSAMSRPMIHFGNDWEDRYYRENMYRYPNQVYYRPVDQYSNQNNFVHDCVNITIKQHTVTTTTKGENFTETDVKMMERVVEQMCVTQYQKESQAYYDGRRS

B1: mouse (Mo) Dpl (26–155) (domain or fragment)
chain: ARGIKHRFKWNRKVLPSSGGQITEARVAENRPGAFIKQGRKLDIDFGAEGNRYYAANYWQFPDGIYYEGCSEANVTKEMLVTSCVNATQAANQAEFSREKQDSKLHQRVLWRLIKEICSAKHCDFWLERG
Q: Does B1 bind?
A: binds
